According to patent publication US20250073311A1, “DOSAGE REGIME” (ZEALAND PHARMA A/S, priority 2021, published 2025):
One block for each binder: values may come before it. Numbered stars: 1 amine (or outer) side, 2 acyl side, 3 side chain; on linkers, the order of the positions; unused ones are H or OH. Square brackets hold non-standard residues; d marks the D form. Side chains are listed from the residue outwards. * marks the point of attachment. C20 diacid = O=C(O)CCCCCCCCCCCCCCCCCCC(=O)*; C18 diacid = O=C(O)CCCCCCCCCCCCCCCCC(=O)*; γGlu = O=C(O)[C@H](CCC(=O)[*:2])N[*:1]; Stearoyl = CCCCCCCCCCCCCCCCCC(=O)*; AEEA = NCCOCCOCC(=O)O; Aib = CC(C)(N)C(=O)O

Key:
[1] = molecular target: T1, human GLP-2 receptor (hGLP2-R) (human, UniProt O95838); experiment: cell-based or functional assay
T1 sequence: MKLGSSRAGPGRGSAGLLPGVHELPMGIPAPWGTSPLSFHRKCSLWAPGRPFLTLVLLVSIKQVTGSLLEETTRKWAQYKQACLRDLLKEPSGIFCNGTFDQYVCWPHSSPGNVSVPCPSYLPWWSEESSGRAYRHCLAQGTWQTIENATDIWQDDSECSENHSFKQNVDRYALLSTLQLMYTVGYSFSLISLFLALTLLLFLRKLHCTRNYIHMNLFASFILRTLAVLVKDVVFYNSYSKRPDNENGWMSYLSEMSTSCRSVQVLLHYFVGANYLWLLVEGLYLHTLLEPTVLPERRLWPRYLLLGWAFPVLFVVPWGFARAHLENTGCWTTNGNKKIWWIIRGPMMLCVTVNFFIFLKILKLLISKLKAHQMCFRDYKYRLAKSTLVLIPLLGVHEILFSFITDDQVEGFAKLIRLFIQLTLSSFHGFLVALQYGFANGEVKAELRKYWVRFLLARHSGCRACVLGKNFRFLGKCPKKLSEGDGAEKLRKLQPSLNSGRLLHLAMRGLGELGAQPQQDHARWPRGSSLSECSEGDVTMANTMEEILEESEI

[2] = molecular target: human glucagon-like peptide 1 receptor (GLP-1R) (human, UniProt P43220); experiment: cell-based or functional assay

EC50 GLP-2 (nM), cAMP AlphaScreen [1]: 0.89 nM
EC50 GLP-1 (nM), cAMP AlphaScreen [2]: 0.25 nM
B1: Compound 38 (peptide)
peptide: H-H[Aib]EGTFSSELATILDEQAARDFIAWLIAHKITD[dK][dK][dK][dK][dK][dK]([γGlu-C18 diacid])-NH2
SMILES: CC[C@H](C)[C@H](NC(=O)[C@H](CC(C)C)NC(=O)[C@H](Cc1c[nH]c2ccccc12)NC(=O)[C@H](C)NC(=O)[C@@H](NC(=O)[C@H](Cc1ccccc1)NC(=O)[C@H](CC(=O)O)NC(=O)[C@H](CCCNC(=N)N)NC(=O)[C@H](C)NC(=O)[C@H](C)NC(=O)[C@H](CCC(N)=O)NC(=O)[C@H](CCC(=O)O)NC(=O)[C@H](CC(=O)O)NC(=O)[C@H](CC(C)C)NC(=O)[C@@H](NC(=O)[C@@H](NC(=O)[C@H](C)NC(=O)[C@H](CC(C)C)NC(=O)[C@H](CCC(=O)O)NC(=O)[C@H](CO)NC(=O)[C@H](CO)NC(=O)[C@H](Cc1ccccc1)NC(=O)[C@@H](NC(=O)CNC(=O)[C@H](CCC(=O)O)NC(=O)C(C)(C)NC(=O)[C@@H](N)Cc1c[nH]cn1)[C@@H](C)O)[C@@H](C)O)[C@@H](C)CC)[C@@H](C)CC)C(=O)N[C@@H](C)C(=O)N[C@@H](Cc1c[nH]cn1)C(=O)N[C@@H](CCCCN)C(=O)N[C@H](C(=O)N[C@H](C(=O)N[C@@H](CC(=O)O)C(=O)N[C@H](CCCCN)C(=O)N[C@H](CCCCN)C(=O)N[C@H](CCCCN)C(=O)N[C@H](CCCCN)C(=O)N[C@H](CCCCN)C(=O)N[C@H](CCCCNC(=O)CC[C@H](NC(=O)CCCCCCCCCCCCCCCCC(=O)O)C(=O)O)C(N)=O)[C@@H](C)O)[C@@H](C)CC

EC50 GLP-2 (nM), cAMP AlphaScreen [1]: 3.2 nM
EC50 GLP-1 (nM), cAMP AlphaScreen [2]: 0.32 nM
B2: Compound 36 (peptide)
peptide: H-H[Aib]EGSFTSELATILDK(Stearoyl)QAARDFIAWLIQYKITD-OH
SMILES: CCCCCCCCCCCCCCCCCC(=O)NCCCC[C@H](NC(=O)[C@H](CC(=O)O)NC(=O)[C@H](CC(C)C)NC(=O)[C@@H](NC(=O)[C@@H](NC(=O)[C@H](C)NC(=O)[C@H](CC(C)C)NC(=O)[C@H](CCC(=O)O)NC(=O)[C@H](CO)NC(=O)[C@@H](NC(=O)[C@H](Cc1ccccc1)NC(=O)[C@H](CO)NC(=O)CNC(=O)[C@H](CCC(=O)O)NC(=O)C(C)(C)NC(=O)[C@@H](N)Cc1c[nH]cn1)[C@@H](C)O)[C@@H](C)O)[C@@H](C)CC)C(=O)N[C@@H](CCC(N)=O)C(=O)N[C@@H](C)C(=O)N[C@@H](C)C(=O)N[C@@H](CCCNC(=N)N)C(=O)N[C@@H](CC(=O)O)C(=O)N[C@@H](Cc1ccccc1)C(=O)N[C@H](C(=O)N[C@@H](C)C(=O)N[C@@H](Cc1c[nH]c2ccccc12)C(=O)N[C@@H](CC(C)C)C(=O)N[C@H](C(=O)N[C@@H](CCC(N)=O)C(=O)N[C@@H](Cc1ccc(O)cc1)C(=O)N[C@@H](CCCCN)C(=O)N[C@H](C(=O)N[C@H](C(=O)N[C@@H](CC(=O)O)C(=O)O)[C@@H](C)O)[C@@H](C)CC)[C@@H](C)CC)[C@@H](C)CC

EC50 GLP-2 (nM), cAMP AlphaScreen [1]: 0.98 nM
EC50 GLP-1 (nM), cAMP AlphaScreen [2]: 0.044 nM
B5: Compound 39 (peptide)
peptide: H-H[Aib]EGTFTSELATILDEQAARDFIAWLIAHKITD[dK][dK][dK][dK][dK][dK]([γGlu-C18 diacid])-NH2
SMILES: CC[C@H](C)[C@H](NC(=O)[C@H](CC(C)C)NC(=O)[C@H](Cc1c[nH]c2ccccc12)NC(=O)[C@H](C)NC(=O)[C@@H](NC(=O)[C@H](Cc1ccccc1)NC(=O)[C@H](CC(=O)O)NC(=O)[C@H](CCCNC(=N)N)NC(=O)[C@H](C)NC(=O)[C@H](C)NC(=O)[C@H](CCC(N)=O)NC(=O)[C@H](CCC(=O)O)NC(=O)[C@H](CC(=O)O)NC(=O)[C@H](CC(C)C)NC(=O)[C@@H](NC(=O)[C@@H](NC(=O)[C@H](C)NC(=O)[C@H](CC(C)C)NC(=O)[C@H](CCC(=O)O)NC(=O)[C@H](CO)NC(=O)[C@@H](NC(=O)[C@H](Cc1ccccc1)NC(=O)[C@@H](NC(=O)CNC(=O)[C@H](CCC(=O)O)NC(=O)C(C)(C)NC(=O)[C@@H](N)Cc1c[nH]cn1)[C@@H](C)O)[C@@H](C)O)[C@@H](C)O)[C@@H](C)CC)[C@@H](C)CC)C(=O)N[C@@H](C)C(=O)N[C@@H](Cc1c[nH]cn1)C(=O)N[C@@H](CCCCN)C(=O)N[C@H](C(=O)N[C@H](C(=O)N[C@@H](CC(=O)O)C(=O)N[C@H](CCCCN)C(=O)N[C@H](CCCCN)C(=O)N[C@H](CCCCN)C(=O)N[C@H](CCCCN)C(=O)N[C@H](CCCCN)C(=O)N[C@H](CCCCNC(=O)CC[C@H](NC(=O)CCCCCCCCCCCCCCCCC(=O)O)C(=O)O)C(N)=O)[C@@H](C)O)[C@@H](C)CC

More lines, now with the values behind:

Binder: H-H[Aib]EGSFTSELATILDK([AEEA-AEEA-AEEA-iso‑Lys-C20 diacid])QAARDFIAWLIQQKITD-OH [Compound 35]
EC50 GLP-2 (nM), cAMP AlphaScreen [1]: 0.3 nM
EC50 GLP-1 (nM), cAMP AlphaScreen [2]: 0.099 nM

B3: Compound 34 (peptide)
peptide: H-H[Aib]EGSFTSELATILDK([AEEA-AEEA-γGlu-C20 diacid])QAARDFIAWLKQHKITD-OH
SMILES: CC[C@H](C)[C@H](NC(=O)[C@H](Cc1ccccc1)NC(=O)[C@H](CC(=O)O)NC(=O)[C@H](CCCNC(=N)N)NC(=O)[C@H](C)NC(=O)[C@H](C)NC(=O)[C@H](CCC(N)=O)NC(=O)[C@H](CCCCNC(=O)COCCOCCNC(=O)COCCOCCNC(=O)CC[C@H](NC(=O)CCCCCCCCCCCCCCCCCCC(=O)O)C(=O)O)NC(=O)[C@H](CC(=O)O)NC(=O)[C@H](CC(C)C)NC(=O)[C@@H](NC(=O)[C@@H](NC(=O)[C@H](C)NC(=O)[C@H](CC(C)C)NC(=O)[C@H](CCC(=O)O)NC(=O)[C@H](CO)NC(=O)[C@@H](NC(=O)[C@H](Cc1ccccc1)NC(=O)[C@H](CO)NC(=O)CNC(=O)[C@H](CCC(=O)O)NC(=O)C(C)(C)NC(=O)[C@@H](N)Cc1c[nH]cn1)[C@@H](C)O)[C@@H](C)O)[C@@H](C)CC)C(=O)N[C@@H](C)C(=O)N[C@@H](Cc1c[nH]c2ccccc12)C(=O)N[C@@H](CC(C)C)C(=O)N[C@@H](CCCCN)C(=O)N[C@@H](CCC(N)=O)C(=O)N[C@@H](Cc1c[nH]cn1)C(=O)N[C@@H](CCCCN)C(=O)N[C@H](C(=O)N[C@H](C(=O)N[C@@H](CC(=O)O)C(=O)O)[C@@H](C)O)[C@@H](C)CC
EC50 GLP-2 (nM), cAMP AlphaScreen [1]: 0.13 nM
EC50 GLP-1 (nM), cAMP AlphaScreen [2]: 0.28 nM

B4: Compound 33 (peptide)
peptide: H-H[Aib]EGSFTSELATILDK([AEEA-γGlu-C18 diacid])QAARDFIAWLYQHKITD-OH
SMILES: CC[C@H](C)[C@H](NC(=O)[C@H](Cc1ccccc1)NC(=O)[C@H](CC(=O)O)NC(=O)[C@H](CCCNC(=N)N)NC(=O)[C@H](C)NC(=O)[C@H](C)NC(=O)[C@H](CCC(N)=O)NC(=O)[C@H](CCCCNC(=O)COCCOCCNC(=O)CC[C@H](NC(=O)CCCCCCCCCCCCCCCCC(=O)O)C(=O)O)NC(=O)[C@H](CC(=O)O)NC(=O)[C@H](CC(C)C)NC(=O)[C@@H](NC(=O)[C@@H](NC(=O)[C@H](C)NC(=O)[C@H](CC(C)C)NC(=O)[C@H](CCC(=O)O)NC(=O)[C@H](CO)NC(=O)[C@@H](NC(=O)[C@H](Cc1ccccc1)NC(=O)[C@H](CO)NC(=O)CNC(=O)[C@H](CCC(=O)O)NC(=O)C(C)(C)NC(=O)[C@@H](N)Cc1c[nH]cn1)[C@@H](C)O)[C@@H](C)O)[C@@H](C)CC)C(=O)N[C@@H](C)C(=O)N[C@@H](Cc1c[nH]c2ccccc12)C(=O)N[C@@H](CC(C)C)C(=O)N[C@@H](Cc1ccc(O)cc1)C(=O)N[C@@H](CCC(N)=O)C(=O)N[C@@H](Cc1c[nH]cn1)C(=O)N[C@@H](CCCCN)C(=O)N[C@H](C(=O)N[C@H](C(=O)N[C@@H](CC(=O)O)C(=O)O)[C@@H](C)O)[C@@H](C)CC
EC50 GLP-2 (nM), cAMP AlphaScreen [1]: 0.072 nM
EC50 GLP-1 (nM), cAMP AlphaScreen [2]: 0.85 nM
